Key:
[1] = target: T1, human soluble urokinase plasminogen activator receptor (hsuPAR) (human, UniProt Q03405 23-303, limits assumed); test: BLI (Octet) off-rate screen of scFv clones
T1 construct: Target antigen of the off-rate screen; also called human suPAR; rhuPAR-His
T1 sequence (Q03405 23-303 limits assumed): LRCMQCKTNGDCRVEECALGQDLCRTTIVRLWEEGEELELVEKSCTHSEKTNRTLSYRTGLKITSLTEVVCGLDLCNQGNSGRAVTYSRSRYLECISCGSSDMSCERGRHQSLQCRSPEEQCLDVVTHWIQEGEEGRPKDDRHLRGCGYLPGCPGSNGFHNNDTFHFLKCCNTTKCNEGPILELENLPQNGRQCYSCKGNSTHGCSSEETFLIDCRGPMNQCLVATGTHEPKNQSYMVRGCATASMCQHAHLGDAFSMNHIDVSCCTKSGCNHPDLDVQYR

cynomolgus suPAR = target: T2, cynomolgus suPAR (cynomolgus, UniProt Q9GK78 23-303, limits assumed); test: BLI (Octet) off-rate screen of scFv clones
T2 construct: Target antigen of the off-rate screen; also called cynomolgus uPAR; cynoPLAUR-His
T2 sequence (Q9GK78 23-303 limits assumed): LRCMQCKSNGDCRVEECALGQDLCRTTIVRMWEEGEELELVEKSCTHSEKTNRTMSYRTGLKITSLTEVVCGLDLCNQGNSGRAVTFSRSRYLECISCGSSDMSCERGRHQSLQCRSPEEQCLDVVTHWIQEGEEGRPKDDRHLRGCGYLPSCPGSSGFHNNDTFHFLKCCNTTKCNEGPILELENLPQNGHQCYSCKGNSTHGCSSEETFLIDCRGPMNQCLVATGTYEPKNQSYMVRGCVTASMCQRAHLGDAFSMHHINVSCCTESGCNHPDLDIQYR

[2] = target: T3, cynomolgus soluble urokinase plasminogen activator receptor (cynomolgus suPAR) (cynomolgus, UniProt Q9GK78 23-303, limits assumed); test: off-rate screen of scFv clones (kdis), Octet BLI
T3 construct: also called cynomolgus uPAR; cynoPLAUR-His
T3 sequence (Q9GK78 23-303 limits assumed): as above

[3] = target: T4, human soluble urokinase plasminogen activator receptor (hsuPAR) (human, UniProt Q03405 23-303, limits assumed); test: off-rate screen of scFv clones (kdis), Octet BLI
T4 construct: also called human suPAR; rhuPAR-His
T4 sequence (Q03405 23-303 limits assumed): as the sequence (Q03405 23-303 limits assumed) above

Binder | koff [1] | koff (cynomolgus suPAR) | koff [2] | koff [3]
suPAR_DB03_E09 (scFv, V domains shown, screened as scFv) VH: QVQLVQSGAEVKKPGASVKVSCKASGFNIKDYYIHWVRQAPGQGLEWMGWIDPNSGGTNYAQKFQGRVTMTRDTSTSTVYMELSSLRSEDTAVYYCARGYDVDWFVYWGQGTLVTVSS VL: DIQMTQSPSSLSASVGDRVTITCRARQSVSYMYWYQQKPGKAPKLLIYRTSNLASGVPSRFSGSGSGTDFTLTISSLQPEDFATYYCQQYHSYPPTFGGGTKVEIK | 0.00426 s⁻¹ | 0.000132 s⁻¹ |  | 
suPAR_DB04_D09 (scFv, V domains shown, scFv clone from phage display) VH: QVQLVQSGAEVKKPGASVKVSCKASGYTFTAYYMHWVRQAPGQGLEWMGWIDHENGNTIYDQKFQGRVTMTRDTSTSTVYMELSSLRSEDTAVYYCARGYDVDWFVYWGQGTLVTVSS VL: DIQMTQSPSSLSASVGDRVTITCSARSSVSYMYWYQQKPGKAPKLLIYRTSNLASGVPSRFSGSGSGTDFTLTISSLQPEDFATYYCQQYHSYPPTFGGGTKVEIK |  |  | 0.000206 s⁻¹ | 0.00203 s⁻¹
suPAR_DB04_E04 (scFv, V domains shown, scFv clone from phage display) VH: QVQLVQSGAEVKKPGASVKVSCKASGYTFTSYYVHWVRQAPGQGLEWMGWIDHENGNTIYDQKFQGRVTMTRDTSTSTVYMELSSLRSEDTAVYYCARGTDVDWFVYWGQGTLVTVSS VL: DIQMTQSPSSLSASVGDRVTITCRARQSVSYMYWYQQKPGKAPKLLIYRTSNLASGVPSRFSGSGSGTDFTLTISSLQPEDFATYYCQQYHSYPPTFGGGTKVEIK |  |  | 0.000451 s⁻¹ | 0.00335 s⁻¹
suPAR_DB04_C12 (scFv, V domains shown, scFv clone from phage display) VH: QVQLVQSGAEVKKPGASVKVSCKASGHTITSYYMHWVRQAPGQGLEWMGWIDHENGSTIYAQKFQGRVTMTRDTSTSTVYMELSSLRSEDTAVYYCARGYDVDWFVYWGQGTLVTVSS VL: DIQMTQSPSSLSASVGDRVTITCRASSSVSYMYWYQQKPGKAPKLLIYRTSNLASGVPSRFSGSGSGTDFTLTISSLQPEDFATYYCQQYHSYPPTFGGGTKVEIK |  |  | 0.000255 s⁻¹ | 0.000626 s⁻¹
suPAR_DB04_C06 (scFv, V domains shown, scFv clone from phage display) VH: QVQLVQSGAEVKKPGASVKVSCKASGYTFSAYYIHWVRQAPGQGLEWMGWIDHENGNTIYDQKFQGRVTMTRDTSTSTVYMELSSLRSEDTAVYYCARGNDVDWFVYWGQGTLVTVSS VL: DIQMTQSPSSLSASVGDRVTITCSARQSVSYMYWYQQKPGKAPKLLIYRTSNLQSGVPSRFSGSGSGTDFTLTISSLQPEDFATYYCQQYHSYPPTFGGGTKVEIK |  |  | 4.14e-05 s⁻¹ | 0.00412 s⁻¹
suPAR_DB04_E06 (scFv, V domains shown, scFv clone from phage display) VH: QVQLVQSGAEVKKPGASVKVSCKASGYSFTSHYMHWVRQAPGQGLEWMGWIDHENGNTIYDQKFQGRVTMTRDTSTSTVYMELSSLRSEDTAVYYCARGYDVDWFVYWGQGTLVTVSS VL: DIQMTQSPSSLSASVGDRVTITCRARSSVSYMYWYQQKPGKAPKLLIYRTSNLASGVPSRFSGSGSGTDFTLTISSLQPEDFATYYCQQYHSYPPTFGGGTKVEIK |  |  | 0.000137 s⁻¹ | 0.00564 s⁻¹
suPAR_DB04_D04 (scFv, V domains shown, scFv clone from phage display) VH: QVQLVQSGAEVKKPGASVKVSCKASGYTIKDYYMHWVRQAPGQGLEWMGWIDHENGSTIYAQKFQGRVTMTRDTSTSTVYMELSSLRSEDTAVYYCARGYDVDWFVYWGQGTLVTVSS VL: DIQMTQSPSSLSASVGDRVTITCSARSSVSYMYWYQQKPGKAPKLLIYRTSNLASGVPSRFSGSGSGTDFTLTISSLQPEDFATYYCQQYHSYPPTFGGGTKVEIK |  |  | 0.000184 s⁻¹ | 0.00188 s⁻¹
suPAR_DB04_D07 (scFv, V domains shown, scFv clone from phage display) VH: QVQLVQSGAEVKKPGASVKVSCKASGYTFGSYYMHWVRQAPGQGLEWMGWIDHENGNTIYDQKFQGRVTMTRDTSTSTVYMELSSLRSEDTAVYYCARGYDVDWFVYWGQGTLVTVSS VL: DIQMTQSPSSLSASVGDRVTITCRARQSVSYMYWYQQKPGKAPKLLIYRTSNLASGVPSRFSGSGSGTDFTLTISSLQPEDFATYYCQQYHSYPPTFGGGTKVEIK |  |  | 0.000436 s⁻¹ | 0.00217 s⁻¹
suPAR_DB04_C11 (scFv, V domains shown, scFv clone from phage display) VH: QVQLVQSGAEVKKPGASVKVSCKASGYSFTDYYMHWVRQAPGQGLEWMGWIDPENGSTIYDQKFQGRVTMTRDTSTSTVYMELSSLRSEDTAVYYCARGYDVDWFVYWGQGTLVTVSS VL: DIQMTQSPSSLSASVGDRVTITCSARSSVSYMYWYQQKPGKAPKLLIYRTSNLASGVPSRFSGSGSGTDFTLTISSLQPEDFATYYCQQYHSYPPTFGGGTKVEIK |  |  | 0.000483 s⁻¹ | 0.00562 s⁻¹
suPAR_DB04_C05 (scFv, V domains shown, scFv clone from phage display) VH: QVQLVQSGAEVKKPGASVKVSCKASGHTLNSYYMHWVRQAPGQGLEWMGWIDHENGNTIYDQKFQGRVTMTRDTSTSTVYMELSSLRSEDTAVYYCARGYDVDWFVYWGQGTLVTVSS VL: DIQMTQSPSSLSASVGDRVTITCSARSSVSYMYWYQQKPGKAPKLLIYRTSNLASGVPSRFSGSGSGTDFTLTISSLQPEDFATYYCQQYHSYPPTFGGGTKVEIK |  |  | 0.000421 s⁻¹ | 0.00245 s⁻¹
suPAR_DB04_C04 (scFv, V domains shown, scFv clone from phage display) VH: QVQLVQSGAEVKKPGASVKVSCKASGYTFTGYYMHWVRQAPGQGLEWMGWIDHENGNTSYDQKFQGRVTMTRDTSTSTVYMELSSLRSEDTAVYYCARGYDVDWFVYWGQGTLVTVSS VL: DIQMTQSPSSLSASVGDRVTITCSASQSVSYMYWYQQKPGKAPKLLIYRTSNLASGVPSRFSGSGSGTDFTLTISSLQPEDFATYYCQQYHSYPPTFGGGTKVEIK |  |  | 0.000384 s⁻¹ | 0.00229 s⁻¹
suPAR_DB04_C02 (scFv, V domains shown, scFv clone from phage display) VH: QVQLVQSGAEVKKPGASVKVSCKASGNTFIGYYVHWVRQAPGQGLEWMGWIDHENGNTSYDQKFQGRVTMTRDTSTSTVYMELSSLRSEDTAVYYCARGNDVDWFVYWGQGTLVTVSS VL: DIQMTQSPSSLSASVGDRVTITCSARSSVSYMYWYQQKPGKAPKLLIYRTSNLASGVPSRFSGSGSGTDFTLTISSLQPEDFATYYCQQYHSYPPTFGGGTKVEIK |  |  | 0.000146 s⁻¹ | 0.00411 s⁻¹
suPAR_DB04_D03 (scFv, V domains shown, scFv clone from phage display) VH: QVQLVQSGAEVKKPGASVKVSCKASGYTFTSYYMHWVRQAPGQGLEWMGWIDPENGSTIYDQKFQGRVTMTRDTSTSTVYMELSSLRSEDTAVYYCARGYDVDWFVYWGQGTLVTVSS VL: DIQMTQSPSSLSASVGDRVTITCRARQSVSYMYWYQQKPGKAPKLLIYRTSNLASGVPSRFSGSGSGTDFTLTISSLQPEDFATYYCQQYHSYPPTFGGGTKVEIK |  |  | 0.000353 s⁻¹ | 0.00408 s⁻¹
suPAR_DB04_C07 (scFv, V domains shown, scFv clone from phage display) VH: QVQLVQSGAEVKKPGASVKVSCKASGYTFTSYYMHWVRQAPGQGLEWMGWIDHSNGNTIYDQKFQGRVTMTRDTSTSTVYMELSSLRSEDTAVYYCARGDDVDWFVYWGQGTLVTVSS VL: DIQMTQSPSSLSASVGDRVTITCSARSSVSYMYWYQQKPGKAPKLLIYRTSNLASGVPSRFSGSGSGTDFTLTISSLQPEDFATYYCQQYHSYPPTFGGGTKVEIK |  |  | 0.000249 s⁻¹ | 0.0031 s⁻¹
suPAR_DB04_E03 (scFv, V domains shown, scFv clone from phage display) VH: QVQLVQSGAEVKKPGASVKVSCKASGYTFTNYYMHWVRQAPGQGLEWMGWIDHEGGSTIYAQKFQGRVTMTRDTSTSTVYMELSSLRSEDTAVYYCARGYDVDWFVYWGQGTLVTVSS VL: DIQMTQSPSSLSASVGDRVTITCSARSSVSYMYWYQQKPGKAPKLLIYRTSNLASGVPSRFSGSGSGTDFTLTISSLQPEDFATYYCQQYHSYPPTFGGGTKVEIK |  |  | 0.000224 s⁻¹ | 0.00116 s⁻¹
suPAR_DB04_D05 (scFv, V domains shown, scFv clone from phage display) VH: QVQLVQSGAEVKKPGASVKVSCKASGYTFTTYYMHWVRQAPGQGLEWVGWIDPHSGGTNYAQKFQGRVTMTRDTSTSTVYMELSSLRSEDTAVYYCARGYDVDWFVYWGQGTLVTVSS VL: DIQMTQSPSSLSASVGDRVTITCSARSSVSYMYWYQQKPGKAPKLLIYRTSNLASGVPSRFSGSGSGTDFTLTISSLQPEDFATYYCQQYHSYPPTFGGGTKVEIK |  |  | 5.44e-05 s⁻¹ | 0.004 s⁻¹
suPAR_DB04_C09 (scFv, V domains shown, scFv clone from phage display) VH: QVQLVQSGAEVKKPGASVKVSCKASGYTFSTYYMQWVRQAPGQGLEWMGWIDPENGSTIYDQKFQGRVTMTRDTSTSTVYMELSSLRSEDTAVYYCARGYDVDWFVYWGQGTLVTVSS VL: DIQMTQSPSSLSASVGDRVTITCSARSSVSYMYWYQQKPGKAPKLLIYRASNLASGVPSRFSGSGSGTDFTLTISSLQPEDFATYYCQQYHSYPPTFGGGTKVEIK |  |  | 0.00154 s⁻¹ | 0.0013 s⁻¹
suPAR_DB04_D08 (scFv, V domains shown, scFv clone from phage display) VH: QVQLVQSGAEVKKPGASVKVSCKASGYTLSGYYMHWVRQAPGQGLEWMGWIDPNSGATNDAPKFQGRVTMTRDTSTSTVYMELSSLRSEDTAVYYCARGYDVDWFVYWGQGTLVTVSS VL: DIQMTQSPSSLSASVGDRVTITCSARSSVSYMYWYQQKPGKAPKLLIYRTSNLASGVPSRFSGSGSGTDFTLTISSLQPEDFATYYCQQYHSYPPTFGGGTKVEIK |  |  | 0.000343 s⁻¹ | 0.00414 s⁻¹
suPAR_DB04_D10 (scFv, V domains shown, scFv clone from phage display) VH: QVQLVQSGAEVKKPGASVKVSCKASGYTFTSYYMHWVRQAPGQGLEWMGWIDPEGGNTSYDQKFQGRVTMTRDTSTSTVYMELSSLRSEDTAVYYCATGYDVDWFVYWGQGTLVTVSS VL: DIQMTQSPSSLSASVGDRVTITCSARSSVSYMYWYQQKPGKAPKLLIYRTSNLASGVPSRFSGSGSGTDFTLTISSLQPEDFATYYCQQYHSYPPTFGGGTKVEIK |  |  | 0.000402 s⁻¹ | 0.005 s⁻¹
suPAR_DB04_C03 (scFv, V domains shown, scFv clone from phage display) VH: QVQLVQSGAEVKKPGASVKVSCKASGYTFTSYYMHWVRQAPGQGLEWMGWIDPENGSTIYDQKFQGRVTMTRDTSTSTVYMELSSLRSEDTAVYYCASGYDVDWFVYWGQGTLVTVSS VL: DIQMTQSPSSLSASVGDRVTITCSARSSVSYMYWYQQKPGKAPKLLIYRTSNLASGVPSRFSGSGSGTDFTLTISSLQPEDFATYYCQQYHSYPPTFGGGTKVEIK |  |  | 0.000158 s⁻¹ | 0.00368 s⁻¹
